Results reported in the Human Domainome abundance scans (Beltran et al. 2025).

B1: SH3 and PX domain-containing protein 2B, residues 155 to 209; numbered along this chain, A1X283 (parent)
chain: EQYVVVANYQKQESSEISLSVGQVVDIIEKNESGWWFVSTAEEQGWVPATCLEGQ

Variants of: B1
Test: abundance fitness (aPCA) (normalised: wild type 0, dead -1); higher = more abundant; growth selection in yeast, the domain comes from the species named
Conditions: Homo sapiens

Abundance fitness, by site and new letter:
V21: K 0.092 | N -0.342 | Q -0.036 | I -0.166 | M -0.066 | W -0.566 | Y -0.444 | T -0.061 | L -0.188 | P -0.315 | S -0.238 | R -0.005
N31: W -0.367 | P -0.194 | M -0.009 | K -0.028 | T -0.154 | Y -0.255 | A -0.114 | I -0.401 | E -0.122 | D -0.116 | C 0.035 | H -0.095 | V -0.158 | L -0.092 | Q -0.188 | F -0.259 | R -0.007
I27: Q -0.609 | D -1.05 | L -0.099 | V 0.055 | S -0.404 | G -0.351 | K -0.617 | R -0.277 | M -0.185 | C -0.001 | T -0.183 | E -0.944 | H -0.908 | W -0.477 | N -0.899 | F -0.145 | Y -0.149 | P -0.008 | A 0.037
K30: G -0.398 | R -0.049 | F -0.357 | Q -0.027 | W -0.58 | P -0.495 | V -0.273 | Y 0.029 | T -0.008 | I -0.276 | L -0.548 | E -0.17 | D -0.767
W35: M 0.027 | P -0.621 | D -0.182 | G -0.398 | A -0.172 | E -0.173 | V -0.118 | I -0.195 | S -0.04 | N -0.193 | Q 0.04 | C -0.062 | R 0.045 | T -0.191 | L -0.073 | H 0.013 | F -0.005 | Y -0.22
S39: E 0.013 | K -0.035 | Y -0.312 | R -0.009 | M -0.018 | L -0.329 | P -0.864 | F -0.241 | G -0.107 | V -0.414 | C -0.022 | A -0.08 | I -0.297 | N -0.022 | D -0.113 | W -0.371 | T -0.039
E32: I -0.066 | H -0.139 | W -0.353 | C -0.152 | V 0.038 | Y -0.345 | Q 0.001 | R -0.108 | P -0.084 | T -0.122 | N -0.078 | G 0.001 | M -0.188 | S -0.07 | D -0.047 | K -0.326 | A 0.027
Q23: F -0.741 | D -0.034 | E 0.001 | G -0.263 | H -0.136 | L -0.288 | R -0.405 | N -0.037 | M -0.039 | W -0.292 | T -0.085 | P -0.978 | I -0.308
V25: G -0.878 | S -0.95 | K -0.902 | T -0.513 | R -0.945 | C -0.393 | N -0.95 | P -0.825 | W -0.983 | M -0.801 | L -0.378 | F -0.964 | E -0.752 | I -0.317 | H -0.656
E29: R 0.084 | A -0.056 | D -0.104 | M -0.417 | S -0.114 | Q 0.05 | G -0.19 | F -0.691 | P -0.974 | L -0.123 | V -0.258 | H 0.056 | K 0.022 | T -0.037 | C -0.205 | N 0.021 | Y -0.502 | I 0.133 | W -0.097
S33: E -0.002 | D 0.095 | Y -0.074 | H -0.046 | C -0.266 | I -0.393 | P -0.5 | M -0.272 | N -0.09 | V -0.212 | G -0.088 | K 0.058 | W -0.387 | Q 0.074 | F -0.229 | T -0.086 | L -0.242
D26: L -0.078 | R -0.103 | P -0.928 | S -0.122 | C -0.269 | M -0.134 | H -0.214 | T -0.109 | Q -0.052 | G -0.126 | F -0.262 | V -0.179 | Y -0.272 | I -0.508 | N 0.146 | K 0.028 | E -0.112 | A -0.054
V24: H -0.284 | T -0.109 | L -0.128 | P -0.135 | E 0.027 | W -0.075 | Y -0.263 | Q -0.215 | K 0.069 | C -0.035 | F -0.239 | M -0.137 | A -0.008 | S -0.071 | I -0.026 | D -0.277 | R -0.135 | G -0.157 | N 0.001
W36: N -0.367 | G -0.767 | T -0.234 | Y -0.099 | K -0.889 | C -0.11 | H -0.429 | Q -0.71 | R -0.462 | M -0.202 | I -0.139 | S -0.211 | D -0.403 | A -0.104 | L -0.2 | V 0.009 | F 0.083
T40: E -0.337 | F 0.02 | A -0.124 | G -0.19 | H -0.15 | K -0.035 | M -0.065 | L -0.031 | S 0.015 | V -0.042 | C -0.201 | P -0.699 | W -0.354 | D -0.234 | I -0.121 | Q 0.063 | N -0.137
G34: T -0.393 | D -0.125 | A -0.189 | H -0.327 | M -0.216 | W -0.708 | V -0.676 | Q -0.458 | K -0.169 | E -0.147 | R -0.306 | Y -0.492 | F -0.598 | I -0.579 | P -0.249 | N -0.538 | L -0.423 | S -0.208
F37: K 0.066 | I -0.181 | L 0.03 | R 0.06 | A -0.174 | C -0.127 | H -0.068 | Q 0.036 | S -0.109 | D -0.347 | T -0.472 | M -0.069 | E -0.237 | Y 0.061
V38: G -0.363 | A -0.07 | I -0.319 | E -0.76 | W -1.02 | C -0.298 | Q -1.08 | R -0.963 | N -0.895 | D -0.736 | T -0.875 | F -0.915 | H -1.13 | K -1.03 | Y -0.921 | L -0.736 | P -1.14
G22: C -0.638 | N -0.33 | D -0.246 | K -0.789 | M -0.617 | S -0.503 | L -0.921 | E -0.673 | P -0.83 | Q -0.512 | F -0.91 | R -0.549 | A -0.5 | Y -0.498 | T -0.588 | H -0.581 | V -0.945 | W -0.834 | I -1.05
I28: Y -0.462 | Q -0.042 | R -0.211 | E -0.475 | F -0.214 | C -0.13 | M -0.125 | P -0.822 | H -0.052 | T -0.116 | G -0.211 | V 0.027 | A -0.319 | L -0.041 | N -0.229 | K -0.008 | S -0.337 | D -0.451
